Data set [1] deals with crossbeta FVIII-1 (cFVIII-1), Helixate kept at 4 C for 20 hours.
Data set [2] deals with misfolded H5 of H5N1 strain A/Vietnam/1203/04, cH5-3.
Data set [3] deals with misfolded H5 of H5N1 strain A/Vietnam/1203/04, cH5-2.
The target of data set [4] is misfolded H5 of H5N1 strain A/Vietnam/1203/04, cH5-1.
Data set [5] addresses crossbeta factor VIII form 12, Helixate kept at 37 C for 1 week, P00451.
The target in data set [6] is crossbeta FVIII-5 (cFVIII-5), Helixate kept at 95 C for 5 minutes.
Data set [7] deals with T1, crossbeta nOVA, ovalbumin dissolved in PBS at 1.0 mg/mL, P01012.
T1 chain: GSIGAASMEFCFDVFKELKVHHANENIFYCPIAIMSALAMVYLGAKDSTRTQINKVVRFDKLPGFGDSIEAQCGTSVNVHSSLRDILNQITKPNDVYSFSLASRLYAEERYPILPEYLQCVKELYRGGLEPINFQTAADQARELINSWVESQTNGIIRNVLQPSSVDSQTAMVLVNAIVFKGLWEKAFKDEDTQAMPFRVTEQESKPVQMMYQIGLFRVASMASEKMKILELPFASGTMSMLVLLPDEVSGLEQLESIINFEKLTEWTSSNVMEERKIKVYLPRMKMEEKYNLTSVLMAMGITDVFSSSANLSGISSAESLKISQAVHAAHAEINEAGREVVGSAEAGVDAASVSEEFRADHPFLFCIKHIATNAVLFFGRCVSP

Data set [8] concerns the target T2, crossbeta dOVA-2, ovalbumin at 1.0 mg/mL in PBS heated five cycles from 30 to 85 C, P01012.
T2 chain: T1 chain

Data set [9] has as its target misfolded H5 of H5N1 strain A/Vietnam/1203/04, cH5-4.
Data set [10] addresses non-treated H5 of H5N1 strain A/Vietnam/1203/04 (nH5), Protein Sciences.
Data set [11] concerns the target T3, crossbeta dOVA-1, ovalbumin at 5.2 mg/ml in HBS treated with HCl for 40 minutes at 37 C and neutralized, P01012.
T3 chain: T1 chain

Data set [12] has as its target T4, crossbeta dOVA-3, ovalbumin at 1 mg/ml in PBS incubated about 16 h at 75 C, P01012.
T4 chain: T1 chain

crossbeta FVIII-5 (cFVIII-5), Helixate kept at 95 C for 5 minutes, sequence (chain, as listed by the source): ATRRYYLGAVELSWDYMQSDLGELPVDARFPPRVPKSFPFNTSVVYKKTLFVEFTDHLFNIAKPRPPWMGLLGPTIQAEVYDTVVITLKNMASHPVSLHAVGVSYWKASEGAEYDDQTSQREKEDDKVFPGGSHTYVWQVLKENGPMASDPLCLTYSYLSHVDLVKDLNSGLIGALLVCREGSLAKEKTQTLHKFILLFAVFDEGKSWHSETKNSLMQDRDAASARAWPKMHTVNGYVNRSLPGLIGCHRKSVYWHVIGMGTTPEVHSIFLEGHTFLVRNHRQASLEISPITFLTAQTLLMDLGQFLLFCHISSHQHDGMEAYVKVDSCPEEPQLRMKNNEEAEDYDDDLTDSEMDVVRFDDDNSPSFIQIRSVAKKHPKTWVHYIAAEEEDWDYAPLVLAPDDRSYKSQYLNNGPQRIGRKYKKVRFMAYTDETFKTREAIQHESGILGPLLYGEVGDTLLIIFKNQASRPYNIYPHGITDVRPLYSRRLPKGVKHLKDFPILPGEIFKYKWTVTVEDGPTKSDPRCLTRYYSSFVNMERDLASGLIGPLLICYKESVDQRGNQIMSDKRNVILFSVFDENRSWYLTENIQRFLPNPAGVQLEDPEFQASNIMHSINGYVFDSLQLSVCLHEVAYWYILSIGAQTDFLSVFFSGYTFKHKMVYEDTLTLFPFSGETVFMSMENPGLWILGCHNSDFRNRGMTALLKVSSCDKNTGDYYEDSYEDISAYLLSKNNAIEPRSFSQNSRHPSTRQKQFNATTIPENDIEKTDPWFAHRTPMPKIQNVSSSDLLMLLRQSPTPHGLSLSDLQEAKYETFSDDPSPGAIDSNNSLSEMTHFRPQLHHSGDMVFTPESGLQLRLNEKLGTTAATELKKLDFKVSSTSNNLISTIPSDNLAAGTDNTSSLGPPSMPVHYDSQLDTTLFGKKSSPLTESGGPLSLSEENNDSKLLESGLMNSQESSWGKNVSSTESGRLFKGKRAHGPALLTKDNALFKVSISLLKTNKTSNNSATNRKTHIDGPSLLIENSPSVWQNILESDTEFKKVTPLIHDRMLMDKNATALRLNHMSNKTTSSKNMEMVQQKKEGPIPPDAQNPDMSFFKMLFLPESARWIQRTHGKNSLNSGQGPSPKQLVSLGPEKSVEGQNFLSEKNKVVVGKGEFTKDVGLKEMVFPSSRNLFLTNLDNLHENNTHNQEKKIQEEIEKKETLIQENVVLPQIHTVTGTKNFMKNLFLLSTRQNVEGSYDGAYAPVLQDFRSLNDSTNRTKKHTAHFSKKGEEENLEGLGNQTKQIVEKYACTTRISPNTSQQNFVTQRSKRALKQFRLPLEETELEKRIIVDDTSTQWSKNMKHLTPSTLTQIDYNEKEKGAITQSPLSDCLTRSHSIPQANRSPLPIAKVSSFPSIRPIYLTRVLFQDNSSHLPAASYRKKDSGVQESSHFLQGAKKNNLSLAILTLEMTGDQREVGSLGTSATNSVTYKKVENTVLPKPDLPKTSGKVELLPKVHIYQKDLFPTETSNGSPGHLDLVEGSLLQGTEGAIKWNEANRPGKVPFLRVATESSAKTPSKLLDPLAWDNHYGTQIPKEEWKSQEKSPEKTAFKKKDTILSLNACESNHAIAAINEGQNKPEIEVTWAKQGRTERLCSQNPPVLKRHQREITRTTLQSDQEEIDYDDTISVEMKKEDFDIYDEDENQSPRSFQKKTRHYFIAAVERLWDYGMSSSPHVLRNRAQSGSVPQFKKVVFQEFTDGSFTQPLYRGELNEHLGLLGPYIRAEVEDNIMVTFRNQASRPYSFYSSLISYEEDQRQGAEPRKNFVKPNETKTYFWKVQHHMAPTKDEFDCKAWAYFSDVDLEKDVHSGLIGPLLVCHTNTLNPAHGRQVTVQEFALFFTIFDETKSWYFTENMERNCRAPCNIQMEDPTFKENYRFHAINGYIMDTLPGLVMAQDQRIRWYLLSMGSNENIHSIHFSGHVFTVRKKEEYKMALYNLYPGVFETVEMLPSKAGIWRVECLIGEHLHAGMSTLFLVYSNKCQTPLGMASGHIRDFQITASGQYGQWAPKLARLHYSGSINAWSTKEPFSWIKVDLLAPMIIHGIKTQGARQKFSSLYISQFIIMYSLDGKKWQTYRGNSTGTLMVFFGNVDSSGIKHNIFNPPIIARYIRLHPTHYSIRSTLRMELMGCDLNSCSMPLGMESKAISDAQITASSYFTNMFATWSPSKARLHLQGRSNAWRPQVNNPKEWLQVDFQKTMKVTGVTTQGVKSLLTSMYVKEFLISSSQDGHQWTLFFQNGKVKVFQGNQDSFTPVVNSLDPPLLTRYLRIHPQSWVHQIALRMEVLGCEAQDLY
crossbeta FVIII-1 (cFVIII-1), Helixate kept at 4 C for 20 hours, sequence (chain, as listed by the source): as above
crossbeta factor VIII form 12, Helixate kept at 37 C for 1 week, P00451, sequence (P00451 whole entry, looked up): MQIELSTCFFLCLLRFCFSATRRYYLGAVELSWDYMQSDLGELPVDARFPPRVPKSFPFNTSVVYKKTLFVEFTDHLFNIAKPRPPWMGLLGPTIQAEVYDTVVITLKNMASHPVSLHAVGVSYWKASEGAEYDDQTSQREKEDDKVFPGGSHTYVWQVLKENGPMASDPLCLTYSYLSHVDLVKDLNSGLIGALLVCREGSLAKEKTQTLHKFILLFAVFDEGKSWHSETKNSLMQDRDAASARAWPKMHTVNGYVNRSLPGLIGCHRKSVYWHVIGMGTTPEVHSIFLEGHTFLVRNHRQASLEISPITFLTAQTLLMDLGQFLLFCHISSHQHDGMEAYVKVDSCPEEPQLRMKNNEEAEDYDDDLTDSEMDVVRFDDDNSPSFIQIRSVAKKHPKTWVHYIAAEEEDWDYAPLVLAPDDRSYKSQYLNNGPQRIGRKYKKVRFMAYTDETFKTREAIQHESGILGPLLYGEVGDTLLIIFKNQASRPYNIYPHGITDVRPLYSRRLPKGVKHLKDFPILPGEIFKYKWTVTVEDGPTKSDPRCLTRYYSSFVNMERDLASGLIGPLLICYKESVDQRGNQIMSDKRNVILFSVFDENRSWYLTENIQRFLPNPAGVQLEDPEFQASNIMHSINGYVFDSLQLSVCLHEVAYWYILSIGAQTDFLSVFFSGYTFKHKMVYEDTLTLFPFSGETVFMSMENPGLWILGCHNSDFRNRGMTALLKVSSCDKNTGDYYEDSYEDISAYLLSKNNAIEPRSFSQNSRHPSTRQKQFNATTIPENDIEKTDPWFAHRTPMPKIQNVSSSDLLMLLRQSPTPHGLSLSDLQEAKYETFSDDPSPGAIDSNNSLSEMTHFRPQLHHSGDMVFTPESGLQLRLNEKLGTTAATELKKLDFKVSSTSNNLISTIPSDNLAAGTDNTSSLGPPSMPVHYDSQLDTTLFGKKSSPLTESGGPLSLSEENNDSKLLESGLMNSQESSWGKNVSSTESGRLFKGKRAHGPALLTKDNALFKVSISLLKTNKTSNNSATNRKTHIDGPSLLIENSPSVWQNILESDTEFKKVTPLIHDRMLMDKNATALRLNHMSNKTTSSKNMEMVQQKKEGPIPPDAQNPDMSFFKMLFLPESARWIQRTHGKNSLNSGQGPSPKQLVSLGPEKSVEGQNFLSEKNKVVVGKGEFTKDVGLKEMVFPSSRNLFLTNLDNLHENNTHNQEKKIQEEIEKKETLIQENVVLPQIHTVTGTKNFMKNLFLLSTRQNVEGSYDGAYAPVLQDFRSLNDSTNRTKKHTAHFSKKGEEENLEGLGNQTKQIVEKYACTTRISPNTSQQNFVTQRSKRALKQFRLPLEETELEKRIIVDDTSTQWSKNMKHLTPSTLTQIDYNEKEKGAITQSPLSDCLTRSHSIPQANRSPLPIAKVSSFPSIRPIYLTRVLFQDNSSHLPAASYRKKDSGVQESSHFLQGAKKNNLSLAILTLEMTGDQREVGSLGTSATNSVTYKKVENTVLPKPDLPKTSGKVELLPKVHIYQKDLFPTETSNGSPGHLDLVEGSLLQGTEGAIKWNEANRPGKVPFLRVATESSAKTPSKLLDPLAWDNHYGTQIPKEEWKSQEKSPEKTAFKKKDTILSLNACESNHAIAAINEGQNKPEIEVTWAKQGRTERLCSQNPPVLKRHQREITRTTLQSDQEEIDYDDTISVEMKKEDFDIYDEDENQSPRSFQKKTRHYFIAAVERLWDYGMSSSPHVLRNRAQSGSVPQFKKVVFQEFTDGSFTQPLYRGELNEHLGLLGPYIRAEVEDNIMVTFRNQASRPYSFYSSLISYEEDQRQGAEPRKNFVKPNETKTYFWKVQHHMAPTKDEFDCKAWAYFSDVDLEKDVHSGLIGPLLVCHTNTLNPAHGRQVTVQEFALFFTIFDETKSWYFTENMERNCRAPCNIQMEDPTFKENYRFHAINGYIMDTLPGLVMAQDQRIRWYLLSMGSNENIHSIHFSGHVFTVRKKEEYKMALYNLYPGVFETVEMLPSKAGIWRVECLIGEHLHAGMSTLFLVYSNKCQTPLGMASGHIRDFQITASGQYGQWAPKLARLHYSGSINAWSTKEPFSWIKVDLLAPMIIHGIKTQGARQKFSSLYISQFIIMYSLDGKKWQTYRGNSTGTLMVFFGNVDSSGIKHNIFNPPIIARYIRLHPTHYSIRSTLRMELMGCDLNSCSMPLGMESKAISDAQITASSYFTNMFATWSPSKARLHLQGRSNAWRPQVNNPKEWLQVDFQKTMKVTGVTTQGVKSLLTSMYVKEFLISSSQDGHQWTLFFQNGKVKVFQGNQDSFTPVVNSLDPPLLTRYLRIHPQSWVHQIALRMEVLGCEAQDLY

B1: tissue type plasminogen activator (tPA; Actilyse, Boehringer-Ingelheim) (protein)
chain: SYQVICRDEKTQMIYQQHQSWLRPVLRSNRVEYCWCNSGRAQCHSVPVKSCSEPRCFNGGTCQQALYFSDFVCQCPEGFAGKCCEIDTRATCYEDQGISYRGTWSTAESGAECTNWNSSALAQKPYSGRRPDAIRLGLGNHNYCRNPDRDSKPWCYVFKAGKYSSEFCSTPACSEGNSDCYFGNGSAYRGTHSLTESGASCLPWNSMILIGKVYTAQNPSAQALGLGKHNYCRNPDGDAKPWCHVLKNRRLTWEYCDVPSCSTCGLRQYSQPQFRIKGGLFADIASHPWQAAIFAKHRRSPGERFLCGGILISSCWILSAAHCFQERFPPHHLTVILGRTYRVVPGEEEQKFEVEKYIVHKEFDDDTYDNDIALLQLKSDSSRCAQESSVVRTVCLPPADLQLPDWTECELSGYGKHEALSPFYSERLKEAHVRLYPSSRCTSQHLLNRTVTDNMLCAGDTRSGGPQANLHDACQGDSGGPLVCLNDGRMTLVGIISWGLGCGQKDVPGVYTKVTNYLDWIRDNMRP
In the case of B1, the “tPA/Plg activation assay, relative crossbeta content compared to a misfolded ovalbumin standard” value is “approximately 50, 75 and 125%” in data set [1]; “approximately 50, 75 and 125%” in data set [5]; “approximately 50, 75 and 125%” in data set [6]. Besides, the “tPA mediated plasminogen activation assay” value in data set [2] is “cH5-3 (200% of standard)”; in data set [3], “cH5-2 (150% of standard)”; in data set [4], “cH5-1 (50% of standard)”; in data set [9] it was “cH5-4 (37% of standard)”; in data set [10], “nH5 (140% of standard)”. Besides, the Activation at 10 ug/mL in data set [7] worked out at 48.8%; in data set [8], 107%; in [11], 97.4%; in data set [12], 60.9%. Besides, the Activation at 25 ug/mL in [7] turned out to be 48.1%; in data set [8], 107%; in data set [11] it was 136%; in data set [12], 79%. The protein also displayed an Activation at 10 ug/mL (row is the reference dOVA-2 at 80, set at 100%) in data set [8] of 100%. This protein also returned an Activation at 25 ug/mL (row is the reference dOVA-2 at 80, set at 100%) in data set [8] of 100%.
